Reference: IntAct's records for PubMed 31515488

B1: Ribosome biogenesis protein SLX9 homolog (Homo sapiens), Q9NSI2 (parent)
chain: MGKVRGLRARVHQAAVRPKGEAAPGPAPPAPEATPPPASAAGKDWAFINTNIFARTKIDPSALVQKLELDVRSVTSVRRGEAGSSARSVPSIRRGAEAKTVLPKKEKMKLRREQWLQKIEAIKLAEQKHREERRRRATVVVGDLHPLRDALPELLGLEAGSRRQARSRESNKPRPSELSRMSAAQRQQLLEEERTRFQELLASPAYRASPLVAIGQTLARQMQLEDGGQL
partner: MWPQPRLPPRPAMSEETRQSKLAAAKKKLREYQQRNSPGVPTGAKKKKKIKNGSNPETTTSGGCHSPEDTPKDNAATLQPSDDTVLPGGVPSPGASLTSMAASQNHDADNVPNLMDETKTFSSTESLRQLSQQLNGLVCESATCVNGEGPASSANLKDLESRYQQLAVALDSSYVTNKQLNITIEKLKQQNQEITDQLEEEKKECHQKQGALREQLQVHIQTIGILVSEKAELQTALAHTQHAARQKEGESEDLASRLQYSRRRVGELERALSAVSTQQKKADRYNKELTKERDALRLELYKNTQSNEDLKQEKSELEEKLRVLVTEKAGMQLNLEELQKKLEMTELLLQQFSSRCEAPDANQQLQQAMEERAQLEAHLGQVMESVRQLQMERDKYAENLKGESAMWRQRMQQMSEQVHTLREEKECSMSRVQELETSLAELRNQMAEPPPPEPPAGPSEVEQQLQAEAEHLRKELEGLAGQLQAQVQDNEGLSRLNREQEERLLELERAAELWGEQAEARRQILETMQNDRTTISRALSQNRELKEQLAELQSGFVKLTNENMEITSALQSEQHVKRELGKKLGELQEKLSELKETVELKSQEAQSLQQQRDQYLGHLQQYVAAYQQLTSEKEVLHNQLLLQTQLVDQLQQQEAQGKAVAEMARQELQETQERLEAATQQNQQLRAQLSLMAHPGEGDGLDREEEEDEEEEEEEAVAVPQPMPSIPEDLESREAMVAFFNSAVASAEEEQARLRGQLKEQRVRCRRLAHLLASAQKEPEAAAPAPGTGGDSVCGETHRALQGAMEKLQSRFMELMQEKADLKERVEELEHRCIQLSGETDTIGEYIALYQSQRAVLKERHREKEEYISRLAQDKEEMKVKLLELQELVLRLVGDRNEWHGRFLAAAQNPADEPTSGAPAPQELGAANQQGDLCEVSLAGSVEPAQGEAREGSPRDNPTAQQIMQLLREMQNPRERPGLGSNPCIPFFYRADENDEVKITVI
B2: KH domain-containing, RNA-binding, signal transduction-associated protein 2 (Homo sapiens), Q5VWX1 (parent)
chain: MEEEKYLPELMAEKDSLDPSFVHASRLLAEEIEKFQGSDGKKEDEEKKYLDVISNKNIKLSERVLIPVKQYPKFNFVGKLLGPRGNSLKRLQEETGAKMSILGKGSMRDKAKEEELRKSGEAKYAHLSDELHVLIEVFAPPGEAYSRMSHALEEIKKFLVPDYNDEIRQEQLRELSYLNGSEDSGRGRGIRGRGIRIAPTAPSRGRGGAIPPPPPPGRGVLTPRGSTVTRGALPVPPVARGVPTPRARGAPTVPGYRAPPPPAHEAYEEYGYDDGYGGEYDDQTYETYDNSYATQTQSVPEYYDYGHGVSEDAYDSYAPEEWATTRSSLKAPPQRSARGGYREHPYGRY
partner: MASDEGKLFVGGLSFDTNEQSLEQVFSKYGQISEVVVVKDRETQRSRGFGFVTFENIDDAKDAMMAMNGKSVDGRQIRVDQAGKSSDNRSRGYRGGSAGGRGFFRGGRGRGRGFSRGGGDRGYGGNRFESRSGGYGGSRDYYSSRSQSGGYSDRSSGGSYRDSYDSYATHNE
B3: BAG family molecular chaperone regulator 5 (Homo sapiens), Q9UL15 (parent)
chain: MDMGNQHPSISRLQEIQKEVKSVEQQVIGFSGLSDDKNYKKLERILTKQLFEIDSVDTEGKGDIQQARKRAAQETERLLKELEQNANHPHRIEIQNIFEEAQSLVREKIVPFYNGGNCVTDEFEEGIQDIILRLTHVKTGGKISLRKARYHTLTKICAVQEIIEDCMKKQPSLPLSEDAHPSVAKINFVMCEVNKARGVLIALLMGVNNNETCRHLSCVLSGLIADLDALDVCGRTEIRNYRREVVEDINKLLKYLDLEEEADTTKAFDLRQNHSILKIEKVLKRMREIKNELLQAQNPSELYLSSKTELQGLIGQLDEVSLEKNPCIREARRRAVIEVQTLITYIDLKEALEKRKLFACEEHPSHKAVWNVLGNLSEIQGEVLSFDGNRTDKNYIRLEELLTKQLLALDAVDPQGEEKCKAARKQAVRLAQNILSYLDLKSDEWEY
B4: CDK5 regulatory subunit-associated protein 3 (Homo sapiens), Q96JB5 (parent)
chain: MEDHQHVPIDIQTSKLLDWLVDRRHCSLKWQSLVLTIREKINAAIQDMPESEEIAQLLSGSYIHYFHCLRILDLLKGTEASTKNIFGRYSSQRMKDWQEIIALYEKDNTYLVELSSLLVRNVNYEIPSLKKQIAKCQQLQQEYSRKEEECQAGAAEMREQFYHSCKQYGITGENVRGELLALVKDLPSQLAEIGAAAQQSLGEAIDVYQASVGFVCESPTEQVLPMLRFVQKRGNSTVYEWRTGTEPSVVERPHLEELPEQVAEDAIDWGDFGVEAVSEGTDSGISAEAAGIDWGIFPESDSKDPGGDGIDWGDDAVALQITVLEAGTQAPEGVARGPDALTLLEYTETRNQFLDELMELEIFLAQRAVELSEEADVLSVSQFQLAPAILQGQTKEKMVTMVSVLEDLIGKLTSLQLQHLFMILASPRYVDRVTEFLQQKLKQSQLLALKKELMVQKQQEALEEQAALEPKLDLLLEKTKELQKLIEADISKRYSGRPVNLMGTSL
partner: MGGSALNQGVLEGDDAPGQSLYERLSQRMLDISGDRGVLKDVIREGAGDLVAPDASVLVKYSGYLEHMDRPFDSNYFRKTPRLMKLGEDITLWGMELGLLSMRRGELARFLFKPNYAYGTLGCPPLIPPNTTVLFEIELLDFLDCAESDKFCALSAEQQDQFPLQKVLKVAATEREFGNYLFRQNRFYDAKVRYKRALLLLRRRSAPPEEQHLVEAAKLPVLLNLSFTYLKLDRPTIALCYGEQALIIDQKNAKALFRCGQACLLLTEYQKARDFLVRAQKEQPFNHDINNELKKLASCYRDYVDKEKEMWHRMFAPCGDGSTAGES
B5: UPF0462 protein C4orf33 (Homo sapiens), Q8N1A6 (parent)
chain: MDFKIEHTWDGFPVKHEPVFIRLNPGDRGVMMDISAPFFRDPPAPLGEPGKPFNELWDYEVVEAFFLNDITEQYLEVELCPHGQHLVLLLSGRRNVWKQELPLSFRMSRGETKWEGKAYLPWSYFPPNVTKFNSFAIHGSKDKRSYEALYPVPQHELQQGQKPDFHCLEYFKSFNFNTLLGEEWKQPESDLWLIEKCDI
partner: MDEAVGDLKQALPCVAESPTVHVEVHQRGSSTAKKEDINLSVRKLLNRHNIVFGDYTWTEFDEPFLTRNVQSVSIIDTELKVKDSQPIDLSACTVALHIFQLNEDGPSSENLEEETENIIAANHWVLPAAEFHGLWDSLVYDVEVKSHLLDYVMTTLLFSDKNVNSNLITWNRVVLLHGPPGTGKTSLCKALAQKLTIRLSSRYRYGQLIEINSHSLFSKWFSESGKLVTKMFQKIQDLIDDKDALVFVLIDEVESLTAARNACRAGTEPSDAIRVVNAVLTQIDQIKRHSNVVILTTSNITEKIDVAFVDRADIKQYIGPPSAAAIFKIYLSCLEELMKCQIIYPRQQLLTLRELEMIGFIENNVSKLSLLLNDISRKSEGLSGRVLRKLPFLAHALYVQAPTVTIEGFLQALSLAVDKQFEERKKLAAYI
B6: Sperm-associated microtubule inner protein 4 (Homo sapiens), Q8N865 (parent)
chain: MEVIHGRPYCCRELEGADILSNTFYSNELHNPLQTVTRPTASEDRYQELRESLQQCRLPWGAEREYGGIIPISLPEDHRPKYEPPRVMGKGHQHYGFGGETWPRKLPVEQFYYLTQNKKSDVYGNDSLIPKPPNSTVGEICLPYPIEHPYHTHICRGAMFPTFTSPEDLYTGIKARTQQPFPPTVPTKAYDSTVLKTRGNPYRYELIDIPMDSKKKALTWPGQGVYYDFPRGVEKNKPVFYPKPPKTFAPNTSLNSWDPICSAKEANIQRNLERSHWLTSYTHDFTGLGPMDPLELDDYHEKMVAELTRKIGFDPEPQEKFHPVFKPPRPLEGRIARLIQNRRSLEAIVQQRPRSCPDCTPRVLCNFHTFVPSSKEMVALSDNIPAGVTHKNQDIEEKIIEEQSLLSTYELPSCYPTKDLTSIYDIKPFPKITDTKKTEDLYWRQQSLKTQPTPYCKPDHWIHYENLKSPLRDQYNMCPDPVSLSKPSVLQNKQDTEAFTLEHFLSKPEEELFLNMENNEETRPVLGWIPRAGVTKPQTNLLELKNSFSKTGAQKRFHKSILEDHKDLRDNEHSGMKHQFYGHNSYYFYN
partner: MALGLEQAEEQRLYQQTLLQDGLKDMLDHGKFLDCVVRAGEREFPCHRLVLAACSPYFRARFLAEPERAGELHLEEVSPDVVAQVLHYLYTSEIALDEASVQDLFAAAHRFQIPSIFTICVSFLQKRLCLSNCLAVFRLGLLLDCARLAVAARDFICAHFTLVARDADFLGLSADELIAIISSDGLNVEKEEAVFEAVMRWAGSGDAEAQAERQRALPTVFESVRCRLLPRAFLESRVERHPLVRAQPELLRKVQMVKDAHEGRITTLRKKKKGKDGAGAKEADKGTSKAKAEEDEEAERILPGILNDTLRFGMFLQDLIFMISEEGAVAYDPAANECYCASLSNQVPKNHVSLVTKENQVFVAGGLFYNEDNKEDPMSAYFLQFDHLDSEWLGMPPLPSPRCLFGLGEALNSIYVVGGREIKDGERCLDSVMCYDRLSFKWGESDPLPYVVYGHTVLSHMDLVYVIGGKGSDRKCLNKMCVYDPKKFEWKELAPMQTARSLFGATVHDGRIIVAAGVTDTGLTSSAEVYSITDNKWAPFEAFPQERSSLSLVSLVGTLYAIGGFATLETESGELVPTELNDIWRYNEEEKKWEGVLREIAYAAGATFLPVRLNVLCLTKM
B7: Kinesin-associated protein 3 (Homo sapiens), Q92845 (parent)
chain: MQGEDARYLKRKVKGGNIDVHPSEKALIVHYEVEATILGEMGDPMLGERKECQKIIRLKSLNANTDITSLARKVVEECKLIHPSKLNEVEQLLYYLQNRRDSLSGKEKKEKSSKPKDPPPFEGMEIDEVANINDMDEYIELLYEDIPDKVRGSALILQLARNPDNLEELLLNETALGALARVLREDWKQSVELATNIIYIFFCFSSFSQFHGLITHYKIGALCMNIIDHELKRHELWQEELSKKKKAVDEDPENQTLRKDYEKTFKKYQGLVVKQEQLLRVALYLLLNLAEDTRTELKMRNKNIVHMLVKALDRDNFELLILVVSFLKKLSIFMENKNDMVEMDIVEKLVKMIPCEHEDLLNITLRLLLNLSFDTGLRNKMVQVGLLPKLTALLGNDNYKQIAMCVLYHISMDDRFKSMFAYTDCIPQLMKMLFECSDERIDLELISFCINLAANKRNVQLICEGNGLKMLMKRALKFKDPLLMKMIRNISQHDGPTKNLFIDYVGDLAAQISNDEEEEFVIECLGTLANLTIPDLDWELVLKEYKLVPYLKDKLKPGAAEDDLVLEVVIMIGTVSMDDSCAALLAKSGIIPALIELLNAQQEDDEFVCQIIYVFYQMVFHQATRDVIIKETQAPAYLIDLMHDKNNEIRKVCDNTLDIIAEYDEEWAKKIQSEKFRWHNSQWLEMVESRQMDESEQYLYGDDRIEPYIHEGDILERPDLFYNSDGLIASEGAISPDFFNDYHLQNGDVVGQHSFPGSLGMDGFGQPVGILGRPATAYGFRPDEPYYYGYGS
partner: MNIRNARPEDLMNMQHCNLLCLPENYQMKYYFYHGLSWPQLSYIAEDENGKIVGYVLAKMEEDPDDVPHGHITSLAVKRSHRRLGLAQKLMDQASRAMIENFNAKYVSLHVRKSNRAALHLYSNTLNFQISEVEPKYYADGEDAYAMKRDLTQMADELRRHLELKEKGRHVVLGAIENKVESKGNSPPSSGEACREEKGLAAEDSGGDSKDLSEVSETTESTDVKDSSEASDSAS
B8: Ropporin-1A (Homo sapiens), Q9HAT0 (parent)
chain: MAQTDKPTCIPPELPKMLKEFAKAAIRVQPQDLIQWAADYFEALSRGETPPVRERSERVALCNRAELTPELLKILHSQVAGRLIIRAEELAQMWKVVNLPTDLFNSVMNVGRFTEEIEWLKFLALACSALGVTITKTLKIVCEVLSCDHNGGSPRIPFSTFQFLYTYIAKVDGEISASHVSRMLNYMEQEVIGPDGIITVNDFTQNPRVQLE
partner: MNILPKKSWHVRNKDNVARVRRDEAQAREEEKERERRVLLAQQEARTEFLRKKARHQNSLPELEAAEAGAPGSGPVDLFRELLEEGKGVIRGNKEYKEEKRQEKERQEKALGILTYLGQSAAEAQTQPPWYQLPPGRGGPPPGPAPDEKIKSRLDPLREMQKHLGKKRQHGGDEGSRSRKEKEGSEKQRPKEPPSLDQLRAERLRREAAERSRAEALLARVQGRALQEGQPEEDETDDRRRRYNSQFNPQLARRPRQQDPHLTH

Variants of: B1
Details: with goga2_human GOLGA2, Q08379

Variant	effect of a mutation on the interaction
T138M	disrupting interaction strength

Variants of: B2
Details: with cirbp_human CIRBP

Variant	effect of a mutation on the interaction
P333L	with no effect

Variants of: B3
Details: with thap1_human THAP1, Q9NVV9
thap1_human THAP1, Q9NVV9, sequence (Q9NVV9 whole entry): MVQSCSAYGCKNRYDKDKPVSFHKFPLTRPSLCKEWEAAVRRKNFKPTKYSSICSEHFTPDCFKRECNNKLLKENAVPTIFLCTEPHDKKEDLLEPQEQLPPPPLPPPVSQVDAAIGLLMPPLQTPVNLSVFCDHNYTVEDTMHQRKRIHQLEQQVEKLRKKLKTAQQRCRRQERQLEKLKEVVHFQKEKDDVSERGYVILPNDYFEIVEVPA

Variant	effect of a mutation on the interaction
I279L	with no effect

Variants of: B4
Details: with fkbp6_human FKBP6, O75344

Variant	effect of a mutation on the interaction
E173K	with no effect

Variants of: B5
Details: with pch2_human TRIP13, Q15645

Variant	effect of a mutation on the interaction
H166R	with no effect

Variants of: B6
Details: with klh40_human KLHL40, Q2TBA0

Variant	effect of a mutation on the interaction
A158T	with no effect
H300R	with no effect
P238Q	with no effect

Variants of: B7
Details: with naa10_human NAA10, P41227

Variant	effect of a mutation on the interaction
E167K	with no effect
F434C	with no effect

Variants of: B8
Details: with leng1_human LENG1, Q96BZ8

Variant	effect of a mutation on the interaction
C62W	with no effect
